# Source: patent US9994628B2, “Peptides and combination of peptides for use in immunotherapy against various tumors” (IMMATICS BIOTECHNOLOGIES GMBH, priority 2015, dated 2018)
# Tested on: CD8+ T cells
# Experiment: In vitro T-cell priming assay with aAPCs loaded with peptide/MHC complexes and anti-CD28 antibody, pMHC multimer readout
# Type: cell-based, human
# Conditions: percentage of positive wells among evaluable; HLA-A*02 restricted peptides
# Source text: In order to obtain information regarding the immunogenicity of the TUMAPs of the present invention, the inventors performed investigations using an in vitro T-cell priming assay based on repeated stimulations of CD8+ T cells with artificial antigen presenting cells (aAPCs) loaded with peptide/MHC complexes and anti-CD28 antibody.
# In order to perform in vitro stimulations by artificial antigen presenting cells loaded with peptide-MHC complex (pMHC) and anti-CD28 antibody, the inventors first isolated CD8+ T cells from fresh HLA-A*02 leukapheresis products via positive selection using CD8 microbeads (Miltenyi Biotec, Bergisch-Gladbach, Germany) of healthy donors obtained from the University clinics Mannheim, Germany, after informed consent. PBMCs and isolated CD8+ lymphocytes were incubated in T-cell medium (TCM) until use consisting of RPMI-Glutamax (Invitrogen, Karlsruhe, Germany) supplemented with 10% heat inactivated human AB serum (PAN-Biotech, Aidenbach, Germany), 100 U/ml Penicillin/100 μg/ml Streptomycin (Cambrex, Cologne, Germany), 1 mM sodium pyruvate (CC Pro, Oberdorla, Germany), 20 μg/ml Gentamycin (Cambrex). 2.5 ng/ml IL-7 (PromoCell, Heidelberg, Germany) and 10 U/ml IL-2 (Novartis Pharma, Nümberg, Germany) were also added to the TCM at this step. Generation of pMHC/anti-CD28 coated beads, T-cell stimulations and readout was performed in a highly defined in vitro system using four different pMHC molecules per stimulation condition and 8 different pMHC molecules per readout condition.
# The purified co-stimulatory mouse IgG2a anti human CD28 Ab 9.3 (Jung et al., 1987) was chemically biotinylated using Sulfo-N-hydroxysuccinimidobiotin as recommended by the manufacturer (Perbio, Bonn, Germany). Beads used were 5.6 μm diameter streptavidin coated polystyrene particles (Bangs Laboratories, Illinois, USA).
# pMHC used for positive and negative control stimulations were A*0201/MLA-001 (peptide […] (SEQ ID NO. 289) from modified Melan-A/MART-1) and A*0201/DDX5-001 ([…] from DDX5, SEQ ID NO. 290), respectively.
# 800.000 beads/200 μl were coated in 96-well plates in the presence of 4×12.5 ng different biotin-pMHC, washed and 600 ng biotin anti-CD28 were added subsequently in a volume of 200 μl. Stimulations were initiated in 96-well plates by co-incubating […] CD8+ T cells with 2×10^5 washed coated beads in 200 μl TCM supplemented with 5 ng/ml IL-12 (PromoCell) for 3 days at 37° C. Half of the medium was then exchanged by fresh TCM supplemented with 80 U/ml IL-2 and incubating was continued for 4 days at 37° C. This stimulation cycle was performed for a total of three times. For the pMHC multimer readout using 8 different pMHC molecules per condition, a two-dimensional combinatorial coding approach was used as previously described (Andersen et al., 2012) with minor modifications encompassing coupling to 5 different fluorochromes. Finally, multimeric analyses were performed by staining the cells with Live/dead near IR dye (Invitrogen, Karlsruhe, Germany), CD8-FITC antibody clone SK1 (BD, Heidelberg, Germany) and fluorescent pMHC multimers. For analysis, a BD LSRII SORP cytometer equipped with appropriate lasers and filters was used. Peptide specific cells were calculated as percentage of total CD8+ cells. Evaluation of multimeric analysis was done using the FlowJo software (Tree Star, Oregon, USA). In vitro priming of specific multimer+ CD8+ lymphocytes was detected by comparing to negative control stimulations.
row,Substance,Wells positive [%]
1,34 (TLNTLDINL; listed as Homo sapiens) [compound 34],++++ (>=70% = ++++)
2,39 (YLEDGFAYV; listed as Homo sapiens) [compound 39],++++ (>=70% = ++++)

# Same assay, conditions: positive donors; healthy HLA-A*02 donors; three stimulation cycles
row,Substance,donors (in vitro immunogenicity)
1,287 (KIQEILTQV; listed as Homo sapiens) [compound 287],+++ (50%-69% = +++)
2,288 (SLYKGLLSV; listed as Homo sapiens) [compound 288],++++ (>=70% = ++++)

# Same assay, conditions: positive wells; healthy HLA-A*02 donors; three stimulation cycles
row,Substance,wells (in vitro immunogenicity)
1,287 (KIQEILTQV; listed as Homo sapiens) [compound 287],+ (<20% = +)
2,288 (SLYKGLLSV; listed as Homo sapiens) [compound 288],++ (21%-49% = ++)

# Molecular target: HLA-A*02:01 (Homo sapiens, UniProt P04439, D140Y/D185E/D98H/E176V/E277Q/G131W/G231S/I119V/I121R/I166T/I218V/L300P/L318F/N151K/N90K/P208A/P217A/Q86G/Q94H/R138H/R169H/T345S)
# Experiment: MHC binding assay: UV-ligand exchange and β2m ELISA (peptide exchange yield, Table 7)
# Conditions: binding of HLA-class I restricted peptides to HLA-A*02:01, UV-ligand exchange
# Outline: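 Peptide-MHC complexes made by UV-mediated exchange of a cleavable ligand for test peptide; exchange yield measured by ELISA detecting β2m of stabilized complexes captured on streptavidin, using refolded HLA-A*02:01/MLA-001 monomer standards (15-500 ng/ml). Samples diluted 100-fold; HRP anti-β2m, TMB, absorbance 450 nm.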
row,Substance,"Peptide exchange (MHC class I binding score, peptide exchange yield)"
1,34 (TLNTLDINL; listed as Homo sapiens) [compound 34],+++ (≥50% = +++)
2,39 (YLEDGFAYV; listed as Homo sapiens) [compound 39],+++ (≥50% = +++)
3,267 (YLLDMPLWYL; listed as Homo sapiens) [compound 267],+++ (≥50% = +++)
4,268 (SLDKDIVAL; listed as Homo sapiens) [compound 268],++ (≥20% = ++)
5,269 (GLLDCPIFL; listed as Homo sapiens) [compound 269],++++ (≥75% = ++++)
6,270 (TLLTFFHEL; listed as Homo sapiens) [compound 270],+++ (≥50% = +++)
7,271 (VLIEYNFSI; listed as Homo sapiens) [compound 271],+++ (≥50% = +++)
8,272 (FVMEGEPPKL; listed as Homo sapiens) [compound 272],++ (≥20% = ++)
9,273 (SLNKQIETV; listed as Homo sapiens) [compound 273],++ (≥20% = ++)
10,274 (TLYNPERTITV; listed as Homo sapiens) [compound 274],+++ (≥50% = +++)
11,275 (AVPPPPSSV; listed as Homo sapiens) [compound 275],++ (≥20% = ++)
12,276 (RMPTVLQCV; listed as Homo sapiens) [compound 276],+++ (≥50% = +++)
13,277 (KLQEELNKV; listed as Homo sapiens) [compound 277],+++ (≥50% = +++)
14,278 (VLEDKVLSV; listed as Homo sapiens) [compound 278],+++ (≥50% = +++)
15,279 (VLMDEGAVLTL; listed as Homo sapiens) [compound 279],++ (≥20% = ++)
16,280 (HLWGHALFL; listed as Homo sapiens) [compound 280],+++ (≥50% = +++)
17,281 (LLLESDPKVYSL; listed as Homo sapiens) [compound 281],++ (≥20% = ++)
18,282 (SLYALHVKA; listed as Homo sapiens) [compound 282],++ (≥20% = ++)
19,283 (ALSELLQQV; listed as Homo sapiens) [compound 283],+++ (≥50% = +++)
20,284 (KLMDPGSLPPL; listed as Homo sapiens) [compound 284],++ (≥20% = ++)
21,285 (MLLDTVQKV; listed as Homo sapiens) [compound 285],+++ (≥50% = +++)
22,286 (FLTEMVHFI; listed as Homo sapiens) [compound 286],+++ (≥50% = +++)
